B2: TonB_(ΔTMD) (soluble TonB, residues 33–239, deletion of the N-terminal transmembrane helix) (domain or fragment)
chain: not shown
notes: Gly-Cys between the (His)6 tag and TonB, translated from the printed forward primer (GGCTGT); the cysteine is for AFM surface attachment; TonB of E. coli, cloned from the genome of E. coli BL21 (DE3), residues 33-239 (without the transmembrane domain, residues 1-32); the forward primer begins at HQVIELP; In the AFM experiments the engineered cysteine was coupled to NHS-PEG24-maleimide on the …

Holding throughout (conditions): both partners purified
The target in one test is T1, wild-type BtuB (E. coli, UniProt P06129 21-614).
T1 construct: Cyanocobalamin was present at a 100-fold molar excess during reconstitution; also called vitamin B12 TBDT receptor of E. coli
T1 sequence (looked up): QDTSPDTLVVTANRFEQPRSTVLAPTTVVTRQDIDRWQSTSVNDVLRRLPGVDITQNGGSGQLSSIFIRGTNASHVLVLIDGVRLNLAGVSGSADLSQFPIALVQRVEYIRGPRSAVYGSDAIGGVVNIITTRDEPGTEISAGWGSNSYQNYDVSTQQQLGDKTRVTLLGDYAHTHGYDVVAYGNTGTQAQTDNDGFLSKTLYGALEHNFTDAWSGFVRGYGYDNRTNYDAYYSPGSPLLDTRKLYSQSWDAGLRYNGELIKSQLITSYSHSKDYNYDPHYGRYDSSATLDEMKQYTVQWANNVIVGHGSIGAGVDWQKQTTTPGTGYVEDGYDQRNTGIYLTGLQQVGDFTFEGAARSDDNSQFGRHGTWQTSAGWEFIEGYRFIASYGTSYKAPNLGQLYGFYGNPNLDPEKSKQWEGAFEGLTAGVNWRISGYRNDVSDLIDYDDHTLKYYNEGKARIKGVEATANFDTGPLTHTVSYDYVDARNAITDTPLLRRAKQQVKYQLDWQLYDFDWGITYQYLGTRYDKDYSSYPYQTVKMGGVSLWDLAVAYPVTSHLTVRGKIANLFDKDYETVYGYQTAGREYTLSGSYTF
As to the kind of experiment: single-molecule force spectroscopy (AFM); TonB construct on the AFM probe through NHS-PEG24-maleimide, TBDT (BtuB, its variants or FhuA) in E. coli polar lipid extract liposomes with its ligand adsorbed on mica; dwell 1 s, retraction 1,000 nm s^-1 unless stated otherwise; 25 mM Tris-HCl pH 8.0, 128 mM NaCl, 25 °C; 2 mM DTT added where stated.

For test [1], the target named is T2, BtuB3A (BtuB I80A/L85A/L96A) (E. coli, UniProt P06129 21-614, I80A | L85A | L96A).
T2 sequence (looked up): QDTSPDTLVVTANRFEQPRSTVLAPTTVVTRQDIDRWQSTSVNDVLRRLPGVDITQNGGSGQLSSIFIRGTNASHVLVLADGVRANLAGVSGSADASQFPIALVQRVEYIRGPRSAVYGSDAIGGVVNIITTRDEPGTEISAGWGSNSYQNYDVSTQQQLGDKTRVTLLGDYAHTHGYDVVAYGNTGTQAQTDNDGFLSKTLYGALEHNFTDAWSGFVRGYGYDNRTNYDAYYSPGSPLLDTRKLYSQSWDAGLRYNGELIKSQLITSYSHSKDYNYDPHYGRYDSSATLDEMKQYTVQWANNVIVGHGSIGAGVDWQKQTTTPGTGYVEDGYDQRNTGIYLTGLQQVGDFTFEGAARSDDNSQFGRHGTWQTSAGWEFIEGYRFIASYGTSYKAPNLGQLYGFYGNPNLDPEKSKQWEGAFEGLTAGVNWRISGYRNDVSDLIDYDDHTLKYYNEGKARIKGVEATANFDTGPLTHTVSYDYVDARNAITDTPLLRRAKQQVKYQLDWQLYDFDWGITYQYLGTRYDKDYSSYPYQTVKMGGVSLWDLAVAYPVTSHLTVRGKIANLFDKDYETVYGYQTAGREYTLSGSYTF
The test is described as above.

The target in test [2] is T3, BtuB XL_(loop) (BtuB V29C/V45C) (E. coli, UniProt P06129 21-614, V29C | V45C, disulfide bridge between C29 and C45 (reduced on addition of 2 mM DTT)).
T3 sequence (looked up): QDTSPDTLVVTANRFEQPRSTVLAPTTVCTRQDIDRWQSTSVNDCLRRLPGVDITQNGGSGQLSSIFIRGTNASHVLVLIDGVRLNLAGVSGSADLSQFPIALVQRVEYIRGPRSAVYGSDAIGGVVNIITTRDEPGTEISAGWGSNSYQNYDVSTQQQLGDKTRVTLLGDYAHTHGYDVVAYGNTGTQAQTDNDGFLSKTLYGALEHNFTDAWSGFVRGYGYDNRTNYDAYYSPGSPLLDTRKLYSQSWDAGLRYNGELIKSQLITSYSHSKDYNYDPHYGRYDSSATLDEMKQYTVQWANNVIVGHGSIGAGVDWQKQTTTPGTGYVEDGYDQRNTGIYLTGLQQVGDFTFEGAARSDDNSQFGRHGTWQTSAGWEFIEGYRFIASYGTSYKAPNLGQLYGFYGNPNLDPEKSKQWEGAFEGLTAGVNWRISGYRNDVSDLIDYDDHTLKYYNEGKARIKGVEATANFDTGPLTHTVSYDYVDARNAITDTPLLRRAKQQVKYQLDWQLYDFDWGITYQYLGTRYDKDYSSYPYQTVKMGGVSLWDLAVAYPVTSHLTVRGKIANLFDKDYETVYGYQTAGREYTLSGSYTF
Described as above.

Test [3] has as its target B2. As to the kind of experiment: MST; Alexa Fluor 488-labelled TB_(BtuB) peptide at constant concentration (500 nM mixed 1:1), TonB_(ΔTMD) titrated 7 nM-244 μM in 16 dilutions; 25 mM Tris-HCl pH 7.5, 128 mM NaCl, 5 min at room temperature; fit by the law of mass action.

Where no end group is shown, it is not given here.

B1: TonBCTD (globular C-terminal domain of TonB without the linker) (domain or fragment)
chain: not shown
notes: Gly-Cys between the (His)6 tag and TonBCTD, translated from the printed forward primer (GGATGT); the cysteine is for AFM surface attachment; C-terminal domain of TonB of E. coli; also called TonB C-terminal domain; source: E. coli BL21 (DE3), pET-23a(+), purified (Ni Sepharose, size exclusion chromatography)
For the molecule B1, the binding result with wild-type BtuB is “binds”.
For the molecule B2, the binding result in test [1] and in test [2] was “binds” each time.

B3: Ton box peptide from BtuB (TB_(BtuB)) labelled with Alexa Fluor 488 C5 maleimide (peptide)
peptide: PDTLVVTANRGSWSC(Alexa Fluor 488 C5 maleimide)
notes: also called TB_(BtuB)-Alexa fluor 488; Ton box_(BtuB) peptide; source: synthetic peptide
For B3, the Kd in test [3] turned out to be 9.4 ± 0.3 µM.

As usually defined, the Kd is the constant that tells how readily two partners part at equilibrium.

Values taken from paper PMC5413942, “Gating of TonB-dependent transporters by substrate-specific forced remodelling” (Nature Communications, 2017).
